From US20200079833A1 (AstraZeneca / MedImmune, published 2020)
Starred links: 1 amine or outer side, 2 acyl side, 3 side chain; linkers in the order of their positions; H or OH if unused. Non-standard residues stand in square brackets, D forms with d. Groups on a side chain read outwards from the residue. Primed or numbered codes have the meaning given here. No end group written: not given here. *: point of attachment. γGlu = O=C(O)[C@H](CCC(=O)[*:2])N[*:1]; Stearoyl = CCCCCCCCCCCCCCCCCC(=O)*; αMeF = C[C@](N)(Cc1ccccc1)C(=O)O; αMeK = C[C@](N)(CCCCN)C(=O)O; αMeS = C[C@](N)(CO)C(=O)O; PEG2′ = not defined here; Aib = CC(C)(N)C(=O)O

Each binder was assayed against T1, GLP-1R (INS1e assay) (UniProt P32301 22-463, limits assumed) (assay: cell-based or functional assay).
T1 sequence (looked up): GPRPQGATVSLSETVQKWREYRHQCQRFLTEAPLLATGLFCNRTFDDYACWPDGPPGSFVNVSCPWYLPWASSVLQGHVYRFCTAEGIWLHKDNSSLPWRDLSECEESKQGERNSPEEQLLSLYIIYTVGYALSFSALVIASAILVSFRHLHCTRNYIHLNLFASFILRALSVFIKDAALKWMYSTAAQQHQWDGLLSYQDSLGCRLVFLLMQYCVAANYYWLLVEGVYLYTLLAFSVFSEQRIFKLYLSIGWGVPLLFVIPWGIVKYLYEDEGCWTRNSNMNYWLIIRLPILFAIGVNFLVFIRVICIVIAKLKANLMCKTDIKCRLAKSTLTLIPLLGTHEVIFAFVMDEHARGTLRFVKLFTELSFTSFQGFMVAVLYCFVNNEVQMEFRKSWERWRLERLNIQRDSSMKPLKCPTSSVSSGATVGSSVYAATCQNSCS

Binder	INS1e assay EC50 GLP-1 R n1 [nM]	INS1e assay EC50 GLP-1 R n2 [nM]	INS1e assay EC50 Mean pM GLP-1R [pM]
H[Aib]EGS[αMeF]TSDVSS[αMeF]LEGEAAK([PEG2′-PEG2′-γGlu-Stearoyl])E[αMeF]IA[αMeF]VV[αMeK]GG-NH2 [SEQ ID NO 46]	52.6	83.4	68000
H[Aib]EGSFTSDV[αMeS]S[αMeF]LEGEAAK([PEG2′-PEG2′-PEG2′-Stearoyl])E[αMeF]IA[αMeF]VV[αMeK]GG-NH2 [SEQ ID NO 51]	0.0247	0.0207	23
HXEGTFTSDVSSYLEGQAAKEFIAWLVKGRK (Aib2; K(ε-(PEG)2-(PEG)2-γE-Stearate) after R30; C-terminal amide) [SEQ ID NO 6]	0.104	0.139	122
H[Aib]EGS[αMeF]TSDV[αMeS]S[αMeF]LEGEAAK([PEG2′-PEG2′-γGlu-Stearoyl])E[αMeF]IAWVV[αMeK]GG-NH2 [SEQ ID NO 49]	9.35	10.7	10000
H[Aib]EGS[αMeF]TSDV[αMeS]S[αMeF]LEGEAAK([PEG2′-PEG2′-PEG2′-Stearoyl])EFIA[αMeF]VV[αMeK]GG-NH2 [SEQ ID NO 54]	0.00267	0.00837	6
H[Aib]EGS[αMeF]TSDV[αMeS]S[αMeF]LEGEAA[αMeK]E[αMeF]IA[αMeF]VV[αMeK]GG-NH2 (N-terminus assumed; SMILES CC[C@H](C)[C@H](NC(=O)[C@](C)(Cc1ccccc1)NC(=O)[C@H](CCC(=O)O)NC(=O)[C@](C)(CCCCN)NC(=O)[C@H](C)NC(=O)[C@H](C)NC(=O)[C@H](CCC(=O)O)NC(=O)CNC(=O)[C@H](CCC(=O)O)NC(=O)[C@H](CC(C)C)NC(=O)[C@](C)(Cc1ccccc1)NC(=O)[C@H](CO)NC(=O)[C@](C)(CO)NC(=O)[C@@H](NC(=O)[C@H](CC(=O)O)NC(=O)[C@H](CO)NC(=O)[C@@H](NC(=O)[C@](C)(Cc1ccccc1)NC(=O)[C@H](CO)NC(=O)CNC(=O)[C@H](CCC(=O)O)NC(=O)C(C)(C)NC(=O)[C@@H](N)Cc1c[nH]cn1)[C@@H](C)O)C(C)C)C(=O)N[C@@H](C)C(=O)N[C@@](C)(Cc1ccccc1)C(=O)N[C@H](C(=O)N[C@H](C(=O)N[C@@](C)(CCCCN)C(=O)NCC(=O)NCC(N)=O)C(C)C)C(C)C) [SEQ ID NO 17]	0.0051	0.00787	6
H[Aib]EGSFTSDV[αMeS]S[αMeF]LEGEAAK([PEG2′-PEG2′-γGlu-Stearoyl])E[αMeF]IA[αMeF]VV[αMeK]GG-NH2 [SEQ ID NO 45]	76.1	113	94600
H[Aib]EGS[αMeF]TSDV[αMeS]S[αMeF]LEGEAA[αMeK]E[αMeF]IA[αMeF]VVEGG-NH2 (N-terminus assumed; SMILES CC[C@H](C)[C@H](NC(=O)[C@](C)(Cc1ccccc1)NC(=O)[C@H](CCC(=O)O)NC(=O)[C@](C)(CCCCN)NC(=O)[C@H](C)NC(=O)[C@H](C)NC(=O)[C@H](CCC(=O)O)NC(=O)CNC(=O)[C@H](CCC(=O)O)NC(=O)[C@H](CC(C)C)NC(=O)[C@](C)(Cc1ccccc1)NC(=O)[C@H](CO)NC(=O)[C@](C)(CO)NC(=O)[C@@H](NC(=O)[C@H](CC(=O)O)NC(=O)[C@H](CO)NC(=O)[C@@H](NC(=O)[C@](C)(Cc1ccccc1)NC(=O)[C@H](CO)NC(=O)CNC(=O)[C@H](CCC(=O)O)NC(=O)C(C)(C)NC(=O)[C@@H](N)Cc1c[nH]cn1)[C@@H](C)O)C(C)C)C(=O)N[C@@H](C)C(=O)N[C@@](C)(Cc1ccccc1)C(=O)N[C@H](C(=O)N[C@H](C(=O)N[C@@H](CCC(=O)O)C(=O)NCC(=O)NCC(N)=O)C(C)C)C(C)C) [SEQ ID NO 43]	0.016	0.0105	13
H[Aib]EGS[αMeF]TSDV[αMeS]S[αMeF]LEGEAAK([PEG2′-PEG2′-γGlu-Stearoyl])E[αMeF]IA[αMeF]VV[αMeK]GG-NH2 [SEQ ID NO 3]	3.59	3.78	3680
H[Aib]EGS[αMeF]TSDV[αMeS]S[αMeF]LEGEAAK([PEG2′-PEG2′-γGlu-Stearoyl])E[αMeF]IA[αMeF]VVKGG-NH2 [SEQ ID NO 50]	22.1	42.6	32400
H[Aib]EGS[αMeF]TSDV[αMeS]SYLEGEAAK([PEG2′-PEG2′-PEG2′-Stearoyl])E[αMeF]IA[αMeF]VV[αMeK]GG-NH2 [SEQ ID NO 53]	0.00625	0.00815	7
H[Aib]EGS[αMeF]TSDV[αMeS]S[αMeF]LEGEAAK([PEG2′-PEG2′-γGlu-Stearoyl])EFIA[αMeF]VV[αMeK]GG-NH2 [SEQ ID NO 48]	0.729	0.871	800
H[Aib]EGS[αMeF]TSDVSS[αMeF]LEGEAAK([PEG2′-PEG2′-PEG2′-Stearoyl])E[αMeF]IA[αMeF]VV[αMeK]GG-NH2 [SEQ ID NO 52]	0.0214	0.0193	20
H[Aib]EGS[αMeF]TSDV[αMeS]S[αMeF]LEGEAAEE[αMeF]IA[αMeF]VV[αMeK]GG-NH2 (N-terminus assumed; SMILES CC[C@H](C)[C@H](NC(=O)[C@](C)(Cc1ccccc1)NC(=O)[C@H](CCC(=O)O)NC(=O)[C@H](CCC(=O)O)NC(=O)[C@H](C)NC(=O)[C@H](C)NC(=O)[C@H](CCC(=O)O)NC(=O)CNC(=O)[C@H](CCC(=O)O)NC(=O)[C@H](CC(C)C)NC(=O)[C@](C)(Cc1ccccc1)NC(=O)[C@H](CO)NC(=O)[C@](C)(CO)NC(=O)[C@@H](NC(=O)[C@H](CC(=O)O)NC(=O)[C@H](CO)NC(=O)[C@@H](NC(=O)[C@](C)(Cc1ccccc1)NC(=O)[C@H](CO)NC(=O)CNC(=O)[C@H](CCC(=O)O)NC(=O)C(C)(C)NC(=O)[C@@H](N)Cc1c[nH]cn1)[C@@H](C)O)C(C)C)C(=O)N[C@@H](C)C(=O)N[C@@](C)(Cc1ccccc1)C(=O)N[C@H](C(=O)N[C@H](C(=O)N[C@@](C)(CCCCN)C(=O)NCC(=O)NCC(N)=O)C(C)C)C(C)C) [SEQ ID NO 42]	0.207	0.167	187
H[Aib]EGS[αMeF]TSDV[αMeS]S[αMeF]LEGEAAEE[αMeF]IA[αMeF]VVEGG-NH2 (N-terminus assumed; SMILES CC[C@H](C)[C@H](NC(=O)[C@](C)(Cc1ccccc1)NC(=O)[C@H](CCC(=O)O)NC(=O)[C@H](CCC(=O)O)NC(=O)[C@H](C)NC(=O)[C@H](C)NC(=O)[C@H](CCC(=O)O)NC(=O)CNC(=O)[C@H](CCC(=O)O)NC(=O)[C@H](CC(C)C)NC(=O)[C@](C)(Cc1ccccc1)NC(=O)[C@H](CO)NC(=O)[C@](C)(CO)NC(=O)[C@@H](NC(=O)[C@H](CC(=O)O)NC(=O)[C@H](CO)NC(=O)[C@@H](NC(=O)[C@](C)(Cc1ccccc1)NC(=O)[C@H](CO)NC(=O)CNC(=O)[C@H](CCC(=O)O)NC(=O)C(C)(C)NC(=O)[C@@H](N)Cc1c[nH]cn1)[C@@H](C)O)C(C)C)C(=O)N[C@@H](C)C(=O)N[C@@](C)(Cc1ccccc1)C(=O)N[C@H](C(=O)N[C@H](C(=O)N[C@@H](CCC(=O)O)C(=O)NCC(=O)NCC(N)=O)C(C)C)C(C)C) [SEQ ID NO 44]	0.475	0.435	455
H[Aib]EGS[αMeF]TSDV[αMeS]SYLEGEAAK([PEG2′-PEG2′-γGlu-Stearoyl])E[αMeF]IA[αMeF]VV[αMeK]GG-NH2 [SEQ ID NO 47]	7.13	12.2	9660
H[Aib]EGS[αMeF]TSDV[αMeS]S[αMeF]LEGEAAK([PEG2′-PEG2′-γGlu-Stearoyl])E[αMeF]IA[αMeF]VV[αMeK]GG-NH2 [SEQ ID NO 33]	3.59	3.78	3680
